Consider four molecules from patent US20240327523A1 (University of California, published 2024).

Test [1] addresses T1, Fc-CD94 (biotinylated Fc fusion protein with the extracellular domain of human CD94 fused at the C-terminal … (human, UniProt Q13241 32-179, biotinylated on the biotin-acceptor-tag (~90% biotinylation))).
T1 chain: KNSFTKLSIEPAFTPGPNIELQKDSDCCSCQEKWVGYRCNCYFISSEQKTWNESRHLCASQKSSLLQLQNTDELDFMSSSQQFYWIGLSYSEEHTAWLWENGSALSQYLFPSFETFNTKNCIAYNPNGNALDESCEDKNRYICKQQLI
The test is described as follows: ELISA.

Test [2] deals with T2, Fc-CD94 (biotinylated Fc fusion protein with the extracellular domain of human CD94 fused at the C-terminal … (human, UniProt Q13241 32-179, biotinylated on the biotin-acceptor-tag (~90% biotinylation))).
T2 construct: extracellular domain; Expressed in Expi293 cells; also called CD94 Fc fusion protein; Fc-CD94 fusion protein; not shown: biotin-acceptor-tag at the N-terminus; human IgG1 Fc; TEV proteolysis site between the ECD and Fc-domain
T2 sequence (looked up): T1 chain
Kind of test: multipoint ELISA of purified Fab.

In test [3] the target is T2, Fc-CD94 (biotinylated Fc fusion protein …). Kind of test: assay not given; IgG affinity was measured by Octet BLI on immobilized Fc-CD94 (FIG. 3). As for the experimental part: An octet assay was used to measure the affinity of IgG for the two binders JLS002-rAB22 and JLS002-rAB23. An Octet RED384 (ForteBio) instrument was used to measure the affinity of IgG for the two binders, JLS002-rAB22 and JLS002-rAB23. Fc-CD94 fusion protein was immobilized on a bio-layer interfrometry biosensor coated with streptavidin.
After blocking with PBST buffer (PBS+[…]) containing 10 μM of biotin, the IgGs being tested were loaded for 15 minutes followed by change to PBST buffer without IgG for ˜30 minutes. The kinetic binding curve was recorded.

Test [4] has as its target T3, human CD94 expressed on Ba/F3 cells (human, UniProt Q13241 1-179).
T3 construct: whole, on cells; Mouse Ba/F3 cells stably transduced with a retroviral vector encoding human CD94; also called Ba/F3 transfectants expressing human CD94
T3 sequence (looked up): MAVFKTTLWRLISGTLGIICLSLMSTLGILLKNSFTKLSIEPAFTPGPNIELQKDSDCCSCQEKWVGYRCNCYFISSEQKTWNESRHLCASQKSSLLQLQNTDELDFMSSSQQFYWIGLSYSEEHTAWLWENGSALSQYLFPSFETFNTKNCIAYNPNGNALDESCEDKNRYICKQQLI
The test is described as follows: flow cytometry staining of Ba/F3 transfectants, PE-conjugated anti-human IgG1. The protocol:
Mouse Ba/F3 cells were stably transduced with retroviral vectors encoding human CD94 or with human CD94, human NKG2C, and human DAP12 as described in Lanier, L. L., B. C. Corliss, J. Wu, and J. H. Phillips. 1998. Association of DAP12 with activating CD94/NKG2C NK cell receptors. Immunity 8:693-701. PMID: 9655483. The Ba/F3 transfectants were incubated with phosphate buffered saline (unstained) or with the rab22 JIS002 rab 22 or JSI002 rab 23 antibodies, washed, and then stained with PE-conjugated anti-human IgG1 using standard methods.

The target of test [5] is T1, Fc-CD94 (biotinylated Fc fusion protein …). Kind of test: BLI (Octet).

B1: JLS002-rAB22 Fab (Fab, V domains shown)
VH: EVQLVESGGGLVQPGGSLRLSCAASGFNVYSSSIHWVRQAPGKGLEWVAYISSYSGYTYYADSVKGRFTISADTSKNTAYLQMNSLRAEDTAVYYCARGRYQGMDYWGQGTLVTVSS
VL: DIQMTQSPSSLSASVGDRVTITCRASQSVSSAVAWYQQKPGKAPKLLIYSASSLYSGVPSRFSGSRSGTDFTLTISSLQPEDFATYYCQQYAYHLITFGQGTKVEIK
notes: Fab expressed and purified after phage selection
The molecule B1 returned a half-maximal effective concentration (EC50) in test [1] of 3.42 nM. In test [2], the binding result is recorded as “binds”.

B2: JLS002-rAB22 IgG (antibody, V domains shown)
VH: B1 VH
VL: B1 VL
notes: also called rab22 JIS002 rab 22
For the molecule B2, the binding result in test [3] and in test [4] was “binds” throughout. The Kd in test [5] amounted to 1.74 nM.

B3: JLS002-rAB23 Fab (Fab, V domains shown)
VH: EVQLVESGGGLVQPGGSLRLSCAASGFNVYSSSIHWVRQAPGKGLEWVASISSYSGSTSYADSVKGRFTISADTSKNTAYLQMNSLRAEDTAVYYCARYGYYMSGAMDYWGQGTLVTVSS
VL: DIQMTQSPSSLSASVGDRVTITCRASQSVSSAVAWYQQKPGKAPKLLIYSASSLYSGVPSRFSGSRSGTDFTLTISSLQPEDFATYYCQQKKAYSLITFGQGTKVEIK
notes: as for B1
Turning to B3, the EC50 in test [1] turned out to be 2.98 nM. Moreover, in test [2], the binding result is on record as “binds”.

B4: JLS002-rAB23 IgG (antibody, V domains shown)
VH: B3 VH
VL: B3 VL
notes: also called JSI002 rab 23
As for B4, the binding result in test [3] and in test [4] was “binds” each time. This molecule also returned a Kd in test [5] of 0.94 nM.
